Results from patent US7012128B2, “Interaction between cyclin D1 and steroid receptor co-activators and uses thereof in assays” (TopoTarget UK Limited, priority 1998, dated 2006).
Blank lines part the entries; values can stand above or below the molecule they belong to.

Columns and labels:
[1] = target: T1, GST-SRC1 (361-1441) and His-tagged cyclin D1 (Homo sapiens, UniProt P24385); experiment: GST pull down peptide competition assay; type: binding; details: for interference with binding of cyclin D1 to SRC-1: 0.3 μg and 3 μg peptide, Western blot with anti-cyclin D1 antibody
T1 construct: 6X histidine; made in house; host or cells: E. coli
Method: To ask whether the LXXLL (SEQ ID NO:6) motifs of SRC-1 are involved in cyclin D1 binding, a peptide competition experiment was performed. Peptides (0.3 μg and 3 μg) derived from the four LXXLL motifs of SRC1 were used in a GST pull down assay using GST-SRC1 (361-1441) and His-tagged cyclin D1 as described above. […] The reduction in binding was greater with 3 μg than with 0.3 μg of each of the LXXLL (SEQ ID NO:6) peptides with no reduction shown with the LXXAA (SEQ ID NO:21)mutant peptide. […] In another experiment, the ability of peptides to compete with cyclin D1 for binding to GST-SRC1 was investigated. Increasing amounts (100, 200 and 500 nM) of AASKHKQLSELLRSG (SEQ ID NO:1) (LXXLL (SEQ ID NO:6)) and AASKHKQLSEAARSG (SEQ ID NO:23) (LXXAA) (SEQ ID NO:21) peptides were used in a GST pull down assay using GST-SRC1 (361-1441) and His-tagged cycliin D1.
GST protein, GST-SRC1 fusion protein and His-tagged cyclin D1 protein were purified as described previously (Zwijsen et al., 1997). Binding between 500 ng GST-SRC1 and 100 ng His-D1 was performed in binding buffer (50 mM NaCl, 50 mM HEPES-KOH pH 7.6, […] 0.1% (w/v) NP40, 0.1 mM PMSF and 0.5% charcoal-stripped serum) bound to glutathione-sepharose for 1 hour at 4° C. The beads were washed three times and bound proteins were eluted by boiling for 10 minutes in sample buffer and separated on 10% SDS-PAGE. The binding of His-cyclin D1 to GST-SRC1 was detected by Western blot analysis using monoclonal antibodies directed against cyclin D1 (DCS-6, Neomarkers). For testing a ternary complex, a baculovirus-produced ER (750 ng, Pan Vera) was added to GST-SRC1 (500 ng) and His-D1 (100 ng) in the presence or absence of 1 μM 17β-estradiol using similar conditions as described above. In Western blot analysis monoclonal antibodies directed against cyclin D1 (DCS-6, Neomarkers) and ER (LH2, Novocastra) were used.
For the peptide inhibition assay using the peptides shown in FIG. 4(B), 150 ng GST/GST-SRC1 and 50 ng His-tagged cyclin D1 were used. […]

[2] = test system: wild type ER; experiment: ERE-TATA-luciferase transactivation of wild type ER in COS-7 cells; type: cell-based; details: COS-7, wild type ER, presence of ligand
Method: FIG. 1. Mapping of the region of cyclin D1 required for ER-mediated transactivation. • (A) The effect of cyclin D1 deletion mutants on ER activation in the presence of ligand. The cyclin D1 derivatives used in this study are shown in the left panel; right side of Figure represents the relative capacity of the mutants to potentiate ERE-dependent transcription. ER-negative COS-7 cells were transfected with expression vectors for wild type ER (200 ng), cyclin D1 or cyclin D1 mutants (2.5 μg), an internal control §-galactosidase plasmid (0.5 μg) and an ERE-TATA-luciferase reporter (3 μg). The effect on ER transactivation of wild type cyclin D1 was set to 100%. These studies were performed in three separate experiments and expressed as mean values with standard deviation less then […]. The alignment of leucine-rich motif of ER with D-type cyclins are shown on the bottom; the leucine-rich motif in cyclin D1 is indicated as a dark box. The identifiers for the sequences shown are as follows: Cyclin D1 (SEQ ID NO:11), Estrogen receptor (SEQ ID NO:12), the Cyclin D2 (SEQ ID NO:13), and the Cyclin D3 (SEQ ID NO:14). • (B) ER activation by D-type cyclins, cyclin D1 L254/255A point mutant (D1-LALA) and SRC-1 in the presence of ligand. COS-7 cells were transfected with D-type cyclin expression vectors, cyclin D1 Leucine-to-Alanine point mutant (D1-LALA) or SRC-1 expression vector together with wild type ER expression vector, an ERE-TATA-luciferase reporter plasmid and the internal control β-galactosidase construct. Data are expressed as relative luciferase activity compared with basal ERE-luciferase activity of wild type ER and are normalized for transfection efficiencies.
FIG. 3. Role of coactivators in cyclin D1—induced transactivation. • (A) Effect of a dominant negative form of SRC-1 (SRC1-DN) on ER transactivation. SRC1-DN encoding amino acids 1245-1441 of SRC-1 (1, 2.5 and 5 μg) was introduced by transient transfection together with wild type ER (200 ng) and was tested for its ability to modulate ERE-dependent transcription. • (B) Effect of SRCI-DN on SRC-1 and TIF 2 mediated ER transactivation. SRC-1 (3 μg) or TIF-2 (3 μg) were transfected with SRC1-DN (3 μg) and tested for ER transactivation. • (C) Effect of SRC1-DN on cyclin D1-induced transactivation of ER 1-535 mutant. Cyclin D1 was cotransfected with SRC1-DN (1, 2.5, 5 μg) and tested for its effect on an ER harboring a deletion of coactivator binding site in helix 12 (ER 1-535). • (D) Effect of SRC1-DN on cyclin D1-induced transactivation of ER L543/544A mutant. Cyclin D1 and SRC1-DN (1, 2.5, 5 gg) were transfected and tested for the activity of ER helix 12 point mutant (ER L543/544A). The transient transfections (A-C) were performed in COS-7 cells, which were maintained in DMEM with 10 nM ligand. The relative activity was calculated by normalizing to the internal control and was divided by luciferase activity of ER (mutant) in the presence of ligand. The transfection for each set of conditions were done at least in four independent experiments and expressed as average ±SD.
To study how cyclin D1 activates ER, cyclin D1 deletion mutants were tested for their effect on ER-transactivation. COS-7 cells were transfected with cyclin D1 mutants, together with ER and a luciferase reporter gene construct driven by a minimal TATA promoter linked to an estrogen response element (ERE). […] This part of the protein is not involved in CDK interaction and is poorly conserved among the different cyclins. […] To test the relevance of this leucine-rich domain of cyclin D1 in ER activation, a cyclin D1 mutant was constructed in which leucines 254 and 255 were mutated to alanines (D1 L254/255A). This mutation in cyclin D1 is similar to the mutation in ER (ER L543/544A) that interferes with coactivator binding to AF-2 (Danielian et al., 1992). […]

T1 sequence (P24385 whole entry): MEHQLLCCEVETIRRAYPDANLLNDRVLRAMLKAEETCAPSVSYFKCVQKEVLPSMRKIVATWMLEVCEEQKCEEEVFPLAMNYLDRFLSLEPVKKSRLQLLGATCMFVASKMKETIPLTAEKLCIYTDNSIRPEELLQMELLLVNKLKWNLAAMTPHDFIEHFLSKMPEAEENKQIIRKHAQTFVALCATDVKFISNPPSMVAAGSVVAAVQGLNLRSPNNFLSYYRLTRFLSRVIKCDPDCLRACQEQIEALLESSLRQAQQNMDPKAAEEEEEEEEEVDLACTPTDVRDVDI

Molecule: AASKHKQLSELLRSG [LXXLL peptide derived from p300 amino acid 74-88]
competition with cyclin D1 for binding to GST-SRC1 ([1]; 100, 200 and 500 nM peptide): Binding was reduced with increasing concentration

Molecule: D1: amino acids 1-247: carboxyl-terminal deletion mutant of cyclin D1
ER transactivation capacity [2]: lack ER transactivation capacity

Molecule: D1: amino acids 1-267: cyclin D1 mutant lacking the extreme carboxyl-terminus
ER transactivation capacity [2]: partially retained ER activation

Molecule: D1: amino acids 91-295: amino-terminal deletion mutant of cyclin D1
ER transactivation capacity [2]: still able to activate ER

interference with binding of cyclin D1 to SRC-1 [1]: no reduction
Molecule: LXXAA mutant peptide: LXXAA mutant control peptide of the SRC-1 peptide competition experiment, FIG. 4B (PQAQQKSLQQAAT; listed as Homo sapiens) [reference compound]

interference with binding of cyclin D1 to SRC-1 [1]: best competitor
Molecule: P3: peptide which corresponds to the third of the three centrally located LXXLL motifs of SRC-1 (KDHQLLRYLLDKDE; listed as Homo sapiens)

B1: cyclin D2: D-type cyclin lacking the leucine-rich motif (protein, UniProt P30279 1-289, looked up)
G1/S-specific cyclin-D2: MELLCHEVDPVRRAVRDRNLLRDDRVLQNLLTIEERYLPQCSYFKCVQKDIQPYMRRMVATWMLEVCEEQKCEEEVFPLAMNYLDRFLAGVPTPKSHLQLLGAVCMFLASKLKETSPLTAEKLCIYTDNSIKPQELLEWELVVLGKLKWNLAAVTPHDFIEHILRKLPQQREKLSLIRKHAQTFIALCATDFKFAMYPPSMIATGSVGAAICGLQQDEEVSSLTCDALTELLAKITNTDVDCLKACQEQIEAVLLNSLQQYRQDQRDGSKSEDELDQASTPTDVRDIDL
ER transactivation capacity [2]: behaved similar-to the D1 L254/255A mutant

B2: D1: amino acids 1-202: carboxyl-terminal deletion mutant of cyclin D1 (protein, UniProt P24385 1-202, looked up, fragment)
chain: MEHQLLCCEVETIRRAYPDANLLNDRVLRAMLKAEETCAPSVSYFKCVQKEVLPSMRKIVATWMLEVCEEQKCEEEVFPLAMNYLDRFLSLEPVKKSRLQLLGATCMFVASKMKETIPLTAEKLCIYTDNSIRPEELLQMELLLVNKLKWNLAAMTPHDFIEHFLSKMPEAEENKQIIRKHAQTFVALCATDVKFISNPPSM
ER transactivation capacity [2]: lack ER transactivation capacity

B3: cyclin D3: D-type cyclin lacking the leucine-rich motif (protein, UniProt P30281 1-292, looked up)
G1/S-specific cyclin-D3: MELLCCEGTRHAPRAGPDPRLLGDQRVLQSLLRLEERYVPRASYFQCVQREIKPHMRKMLAYWMLEVCEEQRCEEEVFPLAMNYLDRYLSCVPTRKAQLQLLGAVCMLLASKLRETTPLTIEKLCIYTDHAVSPRQLRDWEVLVLGKLKWDLAAVIAHDFLAFILHRLSLPRDRQALVKKHAQTFLALCATDYTFAMYPPSMIATGSIGAAVQGLGACSMSGDELTELLAGITGTEVDCLRACQEQIEAALRESLREASQTSSSPAPKAPRGSSSQGPSQTSTPTDVTAIHL
ER transactivation capacity [2]: behaved similar-to the D1 L254/255A mutant
